# Square brackets hold non-standard residues; d marks the D form. Ends that are not written are not given here. pT = C[C@@H](OP(=O)(O)O)[C@H](N)C(=O)O
# Target: HLA-A*02:01 (Homo sapiens, UniProt P04439, D140Y/D185E/D98H/E176V/E277Q/G131W/G231S/I119V/I121R/I166T/I218V/L300P/L318F/N151K/N90K/P208A/P217A/Q86G/Q94H/R138H/R169H/T345S)
# Experiment: MHC binding assay: UV-ligand exchange with β2m ELISA
# Conditions: binding to HLA-A*02:01
# Excerpt: Candidate peptides for T cell based therapies according to the present invention were further tested for their MHC binding capacity (affinity). The individual peptide-MHC complexes were produced by UV-ligand exchange, where a UV-sensitive peptide is cleaved upon UV-irradiation, and exchanged with the peptide of interest as analyzed. Only peptide candidates that can effectively bind and stabilize the peptide-receptive MHC molecules prevent dissociation of the MHC complexes. To determine the yield of the exchange reaction, an ELISA was performed based on the detection of the light chain (β2m) of stabilized MHC complexes. The assay was performed as generally described in Rodenko et al. (Rodenko et al., 2006).
# 96 well MAXISorp plates (NUNC) were coated over night with 2 ug/ml streptavidin in PBS at room temperature, washed 4× and blocked for 1 h at 37° C. in 2% BSA containing blocking buffer. Refolded HLA-A*02:01/MLA-001 monomers served as standards, covering the range of 15-500 ng/ml. Peptide-MHC monomers of the UV-exchange reaction were diluted 100-fold in blocking buffer. Samples were incubated for 1 h at 37° C., washed four times, incubated with 2 ug/ml HRP conjugated anti-β2m for 1 h at 37° C., washed again and detected with TMB solution that is stopped with […]. Absorption was measured at 450 nm. Candidate peptides that show a high exchange yield (preferably higher than 50%, most preferred higher than 75%) are generally preferred for a generation and production of antibodies or fragments thereof, and/or T cell receptors or fragments thereof, as they show sufficient avidity to the MHC molecules and prevent dissociation of the MHC complexes.
row,Sequence,"Peptide Exchange (MHC class I binding score, peptide exchange yield)"
1,KQLELELEV (listed as Homo sapiens) [SEQ ID NO: 14],“+++” (≥50 = +++)
2,FIIPTVATA (listed as Homo sapiens) [SEQ ID NO: 7],“++++” (≥75% = ++++)
3,FSFPVSVGV (listed as Homo sapiens) [SEQ ID NO: 20],“+++” (≥50 = +++)
4,ALEEQLHQV (listed as Homo sapiens) [SEQ ID NO: 19],“++” (≥20% = ++)
5,SLADAVEKV (listed as Homo sapiens) [SEQ ID NO: 23],“+++” (≥50 = +++)
6,GLLGFQAEA (listed as Homo sapiens) [SEQ ID NO: 24],“++++” (≥75% = ++++)
7,GLHSLPPEV (listed as Homo sapiens) [SEQ ID NO: 10],“+++” (≥50 = +++)
8,KMPEHISTV (listed as Homo sapiens) [SEQ ID NO: 1],“+++” (≥50 = +++)
9,FLDEEVKLI (listed as Homo sapiens) [SEQ ID NO: 43],“+++” (≥50 = +++)
10,FLVEHVLTL (listed as Homo sapiens) [SEQ ID NO: 42],“++++” (≥75% = ++++)
11,"ALEAUQLYL (ALEA[pT]QLYL; listed as Homo sapiens) [SEQ ID NO: 29, U = phospho-threonine]",“+++” (≥50 = +++)
12,GLSYIYNTV (listed as Homo sapiens) [SEQ ID NO: 31],“++” (≥20% = ++)
13,KLYEGIPVL (listed as Homo sapiens) [SEQ ID NO: 13],“++” (≥20% = ++)
14,SLVEGEAVHLA (listed as Homo sapiens) [SEQ ID NO: 4],“++” (≥20% = ++)
15,SLLSEIQAL (listed as Homo sapiens) [SEQ ID NO: 35],“++++” (≥75% = ++++)
16,GLVQSLTSI (listed as Homo sapiens) [SEQ ID NO: 8],“++++” (≥75% = ++++)
17,YILLQSPQL (listed as Homo sapiens) [SEQ ID NO: 18],“+++” (≥50 = +++)
18,SLAWDVPAA (listed as Homo sapiens) [SEQ ID NO: 26],“+++” (≥50 = +++)
19,SLLTEPALV (listed as Homo sapiens) [SEQ ID NO: 21],“+++” (≥50 = +++)

row,Sequence,"Peptide Exchange (MHC class I binding score, peptide exchange yield)"
1,TLLGLAVNV (listed as Homo sapiens) [SEQ ID NO: 36],“++++” (≥75% = ++++)
2,KAFPFYNTV (listed as Homo sapiens) [SEQ ID NO: 12],“++” (≥20% = ++)
3,ALTALQNYL (listed as Homo sapiens) [SEQ ID NO: 6],“+++” (≥50 = +++)
4,GLVATLQSL (listed as Homo sapiens) [SEQ ID NO: 32],“+++” (≥50 = +++)
5,SLFPSLVVV (listed as Homo sapiens) [SEQ ID NO: 15],“+++” (≥50 = +++)
6,ILTELPPGV (listed as Homo sapiens) [SEQ ID NO: 33],“++” (≥20% = ++)
7,YIDGLESRV (listed as Homo sapiens) [SEQ ID NO: 22],“+++” (≥50 = +++)
8,TIASSIEKA (listed as Homo sapiens) [SEQ ID NO: 17],“++” (≥20% = ++)
9,FMSKLVPAI (listed as Homo sapiens) [SEQ ID NO: 9],“+++” (≥50 = +++)
10,SLNDQGYLL (listed as Homo sapiens) [SEQ ID NO: 41],“+++” (≥50 = +++)
11,"LLMUVAGLKL (LLM[pT]VAGLKL; listed as Homo sapiens) [SEQ ID NO: 38, U = phospho-threonine]",“++++” (≥75% = ++++)
12,ILFDVVVFL (listed as Homo sapiens) [SEQ ID NO: 25],“++” (≥20% = ++)
13,KLLDMELEM (listed as Homo sapiens) [SEQ ID NO: 39],“++++” (≥75% = ++++)
14,FLSSEAANV (listed as Homo sapiens) [SEQ ID NO: 30],“++” (≥20% = ++)
15,GLLPTSVSPRV (listed as Homo sapiens) [SEQ ID NO: 11],“++” (≥20% = ++)
16,ALNPVIYTV (listed as Homo sapiens) [SEQ ID NO: 5],“++” (≥20% = ++)
17,SLAEPRVSV (listed as Homo sapiens) [SEQ ID NO: 27],“+++” (≥50 = +++)
18,SLFSVPFFL (listed as Homo sapiens) [SEQ ID NO: 28],“++++” (≥75% = ++++)
19,SMMGLLTNL (listed as Homo sapiens) [SEQ ID NO: 16],“++++” (≥75% = ++++)

# System: CD8+ T cells
# Experiment: In vitro T-cell priming with aAPCs loaded with peptide/MHC complexes and anti-CD28 antibody, pMHC multimer readout
# Type: cell-based, human
# Conditions: HLA class I peptides; CD8+ T cells of healthy HLA-A*02 donors
# Excerpt: In order to obtain information regarding the immunogenicity of the TUMAPs of the present invention, the inventors performed investigations using an in vitro T-cell priming assay based on repeated stimulations of CD8+ T cells with artificial antigen presenting cells (aAPCs) loaded with peptide/MHC complexes and anti-CD28 antibody.
# In order to perform in vitro stimulations by artificial antigen presenting cells loaded with peptide-MHC complex (pMHC) and anti-CD28 antibody, the inventors first isolated CD8+ T cells from fresh HLA-A*02 leukapheresis products via positive selection using CD8 microbeads (Miltenyi Biotec, Bergisch-Gladbach, Germany) of healthy donors obtained from the University clinics Mannheim, Germany, after informed consent.
# PBMCs and isolated CD8+ lymphocytes were incubated in T-cell medium (TCM) until use consisting of RPMI-Glutamax (Invitrogen, Karlsruhe, Germany) supplemented with 10% heat inactivated human AB serum (PAN-Biotech, Aidenbach, Germany), 100 U/ml Penicillin/100 μg/ml Streptomycin (Cambrex, Cologne, Germany), 1 mM sodium pyruvate (CC Pro, Oberdorla, Germany), 20 μg/ml Gentamycin (Cambrex). 2.5 ng/ml IL-7 (PromoCell, Heidelberg, Germany) and 10 U/ml IL-2 (Novartis Pharma, Nürnberg, Germany) were also added to the TCM at this step.
# Generation of pMHC/anti-CD28 coated beads, T-cell stimulations and readout was performed in a highly defined in vitro system using four different pMHC molecules per stimulation condition and 8 different pMHC molecules per readout condition.
# The purified co-stimulatory mouse IgG2a anti human CD28 Ab 9.3 (Jung et al., 1987) was chemically biotinylated using Sulfo-N-hydroxysuccinimidobiotin as recommended by the manufacturer (Perbio, Bonn, Germany). Beads used were 5.6 μm diameter streptavidin coated polystyrene particles (Bangs Laboratories, Illinois, USA).
# 800.000 beads/200 μl were coated in 96-well plates in the presence of 4×12.5 ng different biotin-pMHC, washed and 600 ng biotin anti-CD28 were added subsequently in a volume of 200 μl. Stimulations were initiated in 96-well plates by co-incubating 1×10^6 CD8+ T cells with 2×10^5 washed coated beads in 200 μl TCM supplemented with 5 ng/ml IL-12 (PromoCell) for 3 days at 37° C. Half of the medium was then exchanged by fresh TCM supplemented with 80 U/ml IL-2 and incubating was continued for 4 days at 37° C.
# This stimulation cycle was performed for a total of three times. For the pMHC multimer readout using 8 different pMHC molecules per condition, a two-dimensional combinatorial coding approach was used as previously described (Andersen et al., 2012) with minor modifications encompassing coupling to 5 different fluorochromes. Finally, multimeric analyses were performed by staining the cells with Live/dead near IR dye (Invitrogen, Karlsruhe, Germany), CD8-FITC antibody clone SK1 (BD, Heidelberg, Germany) and fluorescent pMHC multimers. For analysis, a BD LSRII SORP cytometer equipped with appropriate lasers and filters was used. Peptide specific cells were calculated as percentage of total CD8+ cells. Evaluation of multimeric analysis was done using the FlowJo software (Tree Star, Oregon, USA). In vitro priming of specific multimer+ CD8+ lymphocytes was detected by comparing to negative control stimulations.
row,Sequence,"wells (in vitro immunogenicity, positive wells)"
1,ILFPDIIARA (listed as Homo sapiens) [SEQ ID NO: 66],++ (20%-49% = ++)
2,SLYKGLLSV (listed as Homo sapiens) [SEQ ID NO: 51],++ (20%-49% = ++)
3,TLSSIKVEV (listed as Homo sapiens) [SEQ ID NO: 50],+ (<20% = +)

# Same assay, conditions: HLA-A*02 restricted peptides; positive wells among evaluable; healthy donors
row,Sequence,Wells positive [%] (in vitro immunogenicity)
1,SLADAVEKV (listed as Homo sapiens) [SEQ ID NO: 23],“+++” (50%-69% = +++)
2,GLLGFQAEA (listed as Homo sapiens) [SEQ ID NO: 24],“++” (20%-49% = ++)
3,KMPEHISTV (listed as Homo sapiens) [SEQ ID NO: 1],“+” (<20% = +)
4,SLLTEPALV (listed as Homo sapiens) [SEQ ID NO: 21],“++” (20%-49% = ++)
5,YIDGLESRV (listed as Homo sapiens) [SEQ ID NO: 22],“+” (<20% = +)
